Reference: the nanobody polyreactivity screen of Harvey et al. (2022)

Experiment: yeast display, Sf9 membrane polyspecificity reagent, FACS + sequencing; frameworks hold sequencing errors
Method in brief: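 Genes from sorted yeast were amplified by colony PCR, read by MiSeq 2 × 250 sequencing and filtered on CDR length. These cells carried a synthetic nanobody library in Saccharomyces cerevisiae BJ5465 and were sorted by FACS into low and high (top ~1%) gates on anti-HA and streptavidin fluorescence. Polyreactivity is labelled according to the gate of origin.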

| Sequence | polyreactivity (PSR sort gate) |
| --- | --- |
| QVQLVESGGGLVQAGGSLRLSCAASGSTFSINAMGWYRQAPGKERELVAAISSGGSTYYADSVKGRFTISRDNAKNTVYLQMNSLKPEDTAVYYCAVDPPWTYWSTYRYDYWGQGTQVTVSS | low polyreactivity |
| QVQLVESGGGLVQAGGSLRLSCAASGSTFSIYGMGWYRQAPGKERELVAVITARDGSTYYADSVKGRFTISRDNAKNTVYLQMNSLKPEDTAVYYCAADIGPRYDSWGQGTQVTVSS | high polyreactivity |
| QVQLVESGGGLVQAGGSLRLSCAASGSTFSKNAMGWYRQAPGKERELVAAIRSRGGSTYYADSVKGRFTISRDNAKNTVYLQMNSLKPEDTAVYYCNKVRAYEGDYWGQGTQVTVTS | high polyreactivity |
| QVQLVESGGGLVQAGGSLRLSCAASGSTFSNNSIGWYRQAPWKETELVAAISWYGDSTYADSVKGRFTISRDNAKNTVYLQMNSLKAEATAVYYCAKDTIITPGRRKSPRDRHGYWGQGTQVTVSS | low polyreactivity |
| QVQLVESGGGLVQAGGSLRLSCAASGSTFSNYALGWYSQAPGKERELVAAITSRGGRTYYADSVKGRFTISRDNAKNTVYLQMNSLKPEDTAVYYCAARVGSGRAIDLYYYWGQGTQVTVSS | low polyreactivity |
| QVQLVESGGGLVQAGGSLRLSCAASGSTFSNYAMGWYRQAPGKERELVAAISVRGGSTYYADSVKGRFTISRDNAKNTVYLQMNSLKPEDTAVYYCAKYYYYLRSARKYDYWGQGTQVTVSS | high polyreactivity |
| QVQLVESGGGLVQAGGSLRLSCAASGSTFSNYAMGWYRQAPGKERELVASISNGGSTNYADSVKGRFTISRDNAMNTVYLQMNSLKPEDTSVYNCNAESKAKYDYWGQGTQVTVSS | low polyreactivity |
| QVQLVESGGGLVQAGGSLRLSCAASGSTFSPNAMGWYRQAPGKERELVAAITGGGSTYADSVKGRFTISRDNAKNTVYLQMNSLKPEDTAVYYFNADSYSFPYYYWGQGTQVTVSS | low polyreactivity |
| QVQLVESGGGLVQAGGSLRLSCAASGSTFSPNAMGWYRQAPGKERELVAAITYRGANTYYADSVKGRFTISRDNEKNTVYLQMNSLKPEDNAVYYCAAEYAYHHVGFGYWGQGTQVTVSS | low polyreactivity |
| QVQLVESGGGLVQAGGSLRLSCAASGSTFSPNAMGWYRQAPGKERELVADIDWSGGGTYYADSVKGRFTISRDNAKNTVYLQMNSLKPEDTAVYYCAAGYVWWPFEYDYWGQGTQVTVSS | high polyreactivity |
| QVQLVESGGGLVQAGGSLRLSCAASGSTFSPYAMGWYRQAPGKERELVAAITSSGGSTYYADSVKGRFTISRDNAKNTVYLQMNSLKPEDTAVYYCAAEGYYTSTYDLYDYYWGQGTQVTVSS | low polyreactivity |
| QVQLVESGGGLVQAGGSLRLSCAASGSTFSPYAMGWYRQAPGKERELVANITISGGSTYYADSVKGRFTISRDNAKNTVYLQMNSLKPEDTAVYYCNADSLIRWLFTVVIFDYWGQGTQVTVSS | low polyreactivity |
| QVQLVESGGGLVQAGGSLRLSCAASGSTFSPYARGWYRQAPGKERELVANITISGGSTYYADSVKGRFTISRENAKNTVYFQMNSLKPEDTGVYYSNADSLIRWLFTVVIFDYWGQGTQVTVSS | low polyreactivity |
| QVQLVESGGGLVQAGGSLRLSCAASGSTFSRNAKGWYRQAPGKERELVAAITRSGGSTYYADSVKGRFTISRDNAKNTVYLQMNSLKPEDTAVYYCAVAVPRGVYLYDYWGQGTQVTVSS | low polyreactivity |
| QVQLVESGGGLVQAGGSLRLSCAASGSTFSRNAMGWYRQAPGKERELVAAITRSGGSTYYADSVKGRFTISRDNAKNTVYLQMNSLKPEDTAVYYCAVAVPRGVYLYDYWGQGTQVTVSS | low polyreactivity |
| QVQLVESGGGLVQAGGSLRLSCAASGSTFSRNAMGWYRQAPGKERELVASISWSGARTYYADSVKGRFTISRDNAKNTVYLQMNSLKPEDTAVYYCAKFRSYRGPYNYWGQGTQVTVSS | high polyreactivity |
| QVQLVESGGGLVQAGGSLRLSCAASGSTFSRNAMGWYRQAPGKERELVATISRSGRTNYADSVKGRFTISRDNAKNTVYLQMNSLKPEDTAVSYCNAGYRRSYEYWGQGTQVTVSS | low polyreactivity |
